Data: article PMC6168597, “Mutations at the hydrophobic core affect Hal3 trimer stability, reducing its Ppz1 inhibitory capacity but not its PPCDC moonlighting function” (Scientific Reports, 2018)
Numbering of substitutions follows the chain as printed. Names may count otherwise.

T1: GST-fused full length Ppz1 (S. cerevisiae, UniProt P26570 1-692)
T1 construct: Ser/Thr protein phosphatase Ppz1, S. cerevisiae, full length; also called GST-Ppz1; source: E. coli BL21 (DE3) RIL, purified on glutathione-agarose
T1 sequence (looked up): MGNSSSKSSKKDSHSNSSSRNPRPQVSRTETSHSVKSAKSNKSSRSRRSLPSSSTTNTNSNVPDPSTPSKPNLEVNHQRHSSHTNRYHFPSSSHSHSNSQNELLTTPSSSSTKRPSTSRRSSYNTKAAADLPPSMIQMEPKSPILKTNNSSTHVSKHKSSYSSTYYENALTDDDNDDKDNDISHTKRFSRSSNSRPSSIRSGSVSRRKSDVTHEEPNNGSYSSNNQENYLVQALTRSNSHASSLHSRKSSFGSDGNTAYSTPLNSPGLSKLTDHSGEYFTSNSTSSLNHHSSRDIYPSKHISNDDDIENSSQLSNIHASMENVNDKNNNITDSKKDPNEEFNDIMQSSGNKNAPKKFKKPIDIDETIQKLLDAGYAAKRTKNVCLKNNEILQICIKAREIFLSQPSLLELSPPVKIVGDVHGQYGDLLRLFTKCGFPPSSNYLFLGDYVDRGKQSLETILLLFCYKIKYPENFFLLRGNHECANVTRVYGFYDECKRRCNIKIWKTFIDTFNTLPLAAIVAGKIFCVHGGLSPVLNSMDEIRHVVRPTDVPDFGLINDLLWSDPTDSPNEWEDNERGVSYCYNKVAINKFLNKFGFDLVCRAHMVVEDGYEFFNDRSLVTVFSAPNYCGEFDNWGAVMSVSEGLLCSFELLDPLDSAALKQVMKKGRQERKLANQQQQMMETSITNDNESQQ

B1: Arabidopsis thaliana Hal3 (AtHal3a), native, recombinant, GST removed (enzyme, UniProt Q9SWE5 1-209, looked up)
chain: MENGKRDRQDMEVNTTPRKPRVLLAASGSVAAIKFGNLCHCFTEWAEVRAVVTKSSLHFLDKLSLPQEVTLYTDEDEWSSWNKIGDPVLHIELRRWADVLVIAPLSANTLGKIAGGLCDNLLTCIIRAWDYTKPLFVAPAMNTLMWNNPFTERHLLSLDELGITLIPPIKKRLACGDYGNGAMAEPSLIYSTVRLFWESQAHQQTGGTS
notes: AtHal3a, Arabidopsis thaliana, wild type ORF amplified from the AtHal3a cDNA and cloned into pGEX-6P-1; Flavoprotein (FMN); Theoretical mass of the trimer ~69 kDa; also called native AtHal3; source: E. coli BL21 (DE3) RIL, GST fusion purified on glutathione-agarose, GST cleaved with PreScission protease
B2: AtHal3 G115N L117E, recombinant, GST removed (enzyme, Arabidopsis thaliana, UniProt Q9SWE5 1-209, looked up)
chain: B1 chain with G115N, L117E
notes: AtHal3a, Arabidopsis thaliana, ORF in pGEX-6P-1 with G115N and L117E; source: E. coli BL21 (DE3) RIL, GST fusion purified on glutathione-agarose, GST cleaved with PreScission protease
B3: AtHal3 L117E, recombinant, GST removed (enzyme, Arabidopsis thaliana, UniProt Q9SWE5 1-209, looked up)
chain: B1 chain with L117E
notes: AtHal3a, Arabidopsis thaliana, ORF in pGEX-6P-1 with L117E; source: E. coli BL21 (DE3) RIL, GST fusion purified on glutathione-agarose, GST cleaved with PreScission protease
B4: HA-tagged ScHal3 L403N L405E expressed in S. cerevisiae from pWS93 (natural protein, UniProt P36024 1-562, looked up)
chain: MTAVASTSGKQDADHNQSIECPRFSRGQKEILLDHEDAKGKDSIINSPVSGRQSISPTLSNATTTTTKSIMNATGTSGAVVSNTPEPGLKRVPAVTFSDLKQQQKQDSLTQLKNDSERTKSPNSNPAPVSNSIPGNHAVIPNHTNTSRTTQLSGSPLVNEMKDYDPKKKDSALKIVDTMKPDKIMATSTPISRENNKVTAKAPTSITLRKEDAQDQANNVSGQINVRSTPEETPVKQSVIPSIIPKRENSKNLDPRLPQDDGKLHVLFGATGSLSVFKIKPMIKKLEEIYGRDRISIQVILTQSATQFFEQRYTKKIIKSSEKLNKMSQYESTPATPVTPTPGQCNMAQVVELPPHIQLWTDQDEWDAWKQRTDPVLHIELRRWADILVVAPLTANTLSKIANGECDNLLTSVIRAWNPSYPILLAPSMVSSTFNSMMTKKQLQTIKEEMSWVTVFKPSEKVMDINGDIGLGGMMDWNEIVNKIVMKLGGYPKNNEEEDDDEDEEEDDDEEEDTEDKNENNNDDDDDDDDDDDDDDDDDDDDDDDDEDEDEAETPGIIDKHQ
notes: Hal3 (Sis2), S. cerevisiae, with L403N and L405E; insert released from the pGEX construct and cloned into pWS93; also called the double mutated variant; source: S. cerevisiae IM021 (ppz1 hal3), expressed from pWS93, in protein extract
B5: ScHal3 L403N, recombinant, GST removed (natural protein, S. cerevisiae, UniProt P36024 1-562, looked up)
chain: B4 chain with E405L
notes: Hal3 (Sis2), S. cerevisiae, in pGEX-6P-1 with L403N; also called the L403 variant; source: E. coli BL21 (DE3) RIL, GST fusion purified on glutathione-agarose, GST cleaved with PreScission protease
B6: S. cerevisiae Hal3 (ScHal3), native, recombinant, GST removed (natural protein, UniProt P36024 1-562, looked up)
chain: B4 chain with N403L, E405L
notes: the methods speak of 'each full-length recombinant protein' and the predicted homotrimer is ~190 kDa; also called native ScHal3; WT; source: E. coli BL21 (DE3) RIL, GST fusion purified on glutathione-agarose, GST cleaved with PreScission protease
B7: HA-tagged ScHal3 L405E expressed in S. cerevisiae from pWS93 (natural protein, UniProt P36024 1-562, looked up)
chain: B4 chain with N403L
notes: Hal3 (Sis2), S. cerevisiae, with L405E; insert released from the pGEX construct and cloned into pWS93; source: S. cerevisiae IM021 (ppz1 hal3), expressed from pWS93, in protein extract

Legend:
[1] = target: the molecule itself; assay: cross-linking; purified GST-free proteins (1 or 2 ug) treated with 0.01% glutaraldehyde, SDS-PAGE, Coomassie staining
[2] = target: T1, GST-fused full length Ppz1; assay: pull-down; 4 ug GST-Ppz1 or GST-Ppz1-Cter on glutathione-agarose beads, 600 ug protein extract of IM021 yeast expressing HA-tagged ScHal3 versions, anti-HA immunoblot; signal related to Ponceau-stained bait, native ScHal3 as the unit; details: one partner purified

| Binder | stoichiometry N [1] | interaction relative to native ScHal3 [2] [%] |
| --- | --- | --- |
| B1 | 3 |  |
| B2 | 3 |  |
| B3 | 3 |  |
| B4 |  | ~50 |
| B5 | 3 |  |
| B6 | 3 |  |
| B7 |  | ~50 |
